No end group written: not given here.

The values below come from patent US20260193644A1, “Compositions and Methods For Modulation of Tumor Suppressors and Oncogenes” (FLAGSHIP PIONEERING INNOVATIONS VII, LLC, priority 2022, published 2026).

Holding throughout (assay type): cell-based
Experiment [1] relates to HCT116 colon cancer cell line. In words: Maestro Z impedance-based assay on HCT116 cells stably over-expressing target protein. As to conditions: 2 days. The method, then: Over-expression: Stable over-expression tumor cell lines were made by transduction using lentivirus. For virus production, HEK-293T cells were cultured in DMEM with high glucose and GlutaMAX™ medium (ThermoFisher) supplemented with 10% FBS. After 24 h, cells were transfected using lipofectamine 3000 (ThermoFisher) of Lentiviral packaging plasmid mix (CELLECTA) and pGenLenti plasmids (GenScript Inc) containing: 1) no insert, 2) Target Protein encoding sequence, and 3) the AP2A1 protein (positive control for cell proliferation; https://doi.org/10.1038/sj.one.1205216), into HCT116 (Colon cancer cell line; ATCC). A Myc-tag (EQKLISEEDL) was added to the c-terminus of the expressed protein. After 48 hr post-transfection, culture media containing viruses was collected, loaded onto a 10 ml syringe and filtered through a 0.45 μm filter. […]
Maestro Z Impedance-based assay: The Maestro Z platform (Axion Biosystems) uses impedance measurements (ohms, (2) to quantify the presence of cells on the electrode. Since impedance is noninvasive and label-free, impedance assay is used to quantify dynamic cellular growth over time. For impedance recording, cells were seeded in 96 well assay plate, and the plate was docked in the Maestro Z and the automatic environment controls set the chamber to 37° C. and 5% CO2. Impedance measurements were recorded every minute for the 2 days.

In experiment [2] the test system is Jurkat cells. In words: Caspase-Glo 3/7 apoptosis assay, peptide-treated Jurkat cells. As to conditions: listed = significant. The method, then:
(§1) Cell Culture: Tumor cell lines HCT-116 (Colon Cancer Cell line, ATCC) and U2OS (Osteoscarcoma Cell line, ATCC) cells were grown adherently in ATCC-formulated McCoy's 5a medium supplemented with 10% FBS and 1× penicillin-streptomycin at 37° C. (5% CO2). Jurkat cells (acute T-cell leukemia cell line, ATCC) were grown as suspension cultures in ATCC-formulated RPMI-1640 supplemented with 10% FBS and 1× penicillin-streptomycin at 37° C. (5% CO2). HEP-G2 cells (Liver Cancer Cell line, ATCC) cells were grown adherently in ATCC-formulated Eagle's Minimum Essential Medium (EMEM) supplemented with 10% FBS and 1× penicillin-streptomycin at 37° C. (5% CO2).
(§2) Peptide Treatment: Target protein SEQ ID NO: 37997 was synthesized through Fluorenylmethyloxycarbonyl (Fmoc) protection group chemistry using Solid Phase Peptide Synthesis (SPPS). 5 μM of target peptide and control peptides were added to a 96 well plate containing 10,000 cells (100 μL/well). A white-walled 96-well plate adequate for cell culture and compatible with the luminometer was used. (Corning)
(§3) Apoptosis Assay: Following 24 hrs of peptide treatment, an equal volume reconstituted Caspase-Glo® 3/7 assay reagent mixture (Promega) was added to the cells. The contents of wells were gently mixed using a plate shaker at 300-500 rpm for 30 seconds. The plate was then Incubate at room temperature for 3 hours. The treated plates were then read for luminescence on Promega™ GloMax® Plate Reader. A blank reaction that contained caspase-Glo® 3/7 reagent, vehicle and cell culture medium without cells was used to measure background luminescence. The blank reaction values were subtracted from experimental values. A negative control that contained caspase-Glo® 3/7 reagent and vehicle-treated cells in medium was included to determine the basal caspase activity of the cell culture system. Significant difference in apoptosis was determined using ANOVA analysis by comparing cells treated with SEQ ID NO: 37997 peptide to cells treated with an irrelevant control peptide, or vehicle control treated cells.

Experiment [3] concerns HepG2 cells. Kind of experiment: Caspase-Glo 3/7 apoptosis assay, peptide-treated HepG2 cells. As to conditions: listed = significant. As for the experimental part: Cell Culture: Tumor cell lines HCT-116 (Colon Cancer Cell line, ATCC) and U2OS (Osteoscarcoma Cell line, ATCC) cells were grown adherently in ATCC-formulated McCoy's 5a medium supplemented with 10% FBS and 1× penicillin-streptomycin at 37° C. (5% CO2). Jurkat cells (acute T-cell leukemia cell line, ATCC) were grown as suspension cultures in ATCC-formulated RPMI-1640 supplemented with 10% FBS and 1× penicillin-streptomycin at 37° C. (5% CO2). HEP-G2 cells (Liver Cancer Cell line, ATCC) cells were grown adherently in ATCC-formulated Eagle's Minimum Essential Medium (EMEM) supplemented with 10% FBS and 1× penicillin-streptomycin at 37° C. (5% CO2). […]
Apoptosis Assay: Following 24 hrs of peptide treatment, an equal volume reconstituted Caspase-Glo® 3/7 assay reagent mixture (Promega) was added to the cells. […] The treated plates were then read for luminescence on Promega™ GloMax® Plate Reader. A blank reaction that contained caspase-Glo® 3/7 reagent, vehicle and cell culture medium without cells was used to measure background luminescence. […] Significant difference in apoptosis was determined using ANOVA analysis by comparing cells treated with SEQ ID NO: 37997 peptide to cells treated with an irrelevant control peptide, or vehicle control treated cells.

In experiment [4] the test system is U2OS cells. Kind of experiment: Caspase-Glo 3/7 apoptosis assay, peptide-treated U2OS cells. To be noted: listed = significant. As for the experimental part:
as §1, §2, §3

Experiment [5] deals with T1, C3AR1 (Homo sapiens, UniProt Q16581).
T1 sequence (Q16581 1-482): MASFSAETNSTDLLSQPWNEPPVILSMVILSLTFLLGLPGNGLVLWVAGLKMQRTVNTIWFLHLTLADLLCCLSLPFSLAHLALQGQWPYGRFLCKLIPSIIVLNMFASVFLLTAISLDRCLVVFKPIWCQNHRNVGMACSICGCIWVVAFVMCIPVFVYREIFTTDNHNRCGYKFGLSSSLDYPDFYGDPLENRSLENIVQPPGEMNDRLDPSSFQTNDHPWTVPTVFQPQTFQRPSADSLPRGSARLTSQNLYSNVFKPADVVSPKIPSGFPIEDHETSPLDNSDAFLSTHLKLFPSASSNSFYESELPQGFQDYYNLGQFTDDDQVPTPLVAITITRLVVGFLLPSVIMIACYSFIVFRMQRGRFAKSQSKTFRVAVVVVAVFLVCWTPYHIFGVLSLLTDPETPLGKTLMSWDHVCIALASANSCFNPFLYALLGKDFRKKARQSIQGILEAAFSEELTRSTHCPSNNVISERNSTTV
Kind of experiment: PathHunter β-Arrestin C3AR1 human complement peptide GPCR agonist assay (gpcrMAX screening and hit-confirmation). To be noted: for % activity with respect to known agonist, C3A Receptor Agonist: hit-confirmation. As for the experimental part: SEQ ID NO: 30949 blocks CXCR4 and cancer cell migration, making it suitable in the treatment of multiple cancers. Whereas SEQ ID NO: 34229 agonizes C3AR1, a key regulator of immune response and inflammation. The target proteins SEQ ID NO: 30949 and SEQ ID NO: 34229 were treated with gpcrMAX, which is a comprehensive panel covering 168 G protein-coupled receptors (GPCRs) from over 60 distinct receptor families. This panel utilizes PathHunter® β-Arrestin technology (Eurofins DiscoverX). PathHunter β-Arrestin GPCR cell lines are engineered to co-express the ProLink™ (PK) tagged GPCR and the Enzyme Acceptor (EA) tagged β-Arrestin. Activation of the GPCR-PK induces β-Arrestin-EA recruitment, forcing complementation of the two β-galactosidase enzyme fragments (EA and PK). The resulting functional enzyme hydrolyzes substrate to generate a chemiluminescent signal.
Cell Handling: PathHunter® cell lines were expanded from freezer stocks according to standard procedures. Cells were seeded in a total volume of 20 μL into white walled, 384-well microplates and incubated at 37° C. for the appropriate time prior to testing. […]
Signal Detection: Assay signal was generated through a single addition of 12.5 or 15 μL (50% v/v) of PathHunter® Detection reagent cocktail, followed by a one-hour incubation at room temperature. Microplates were read following signal generation with a PerkinElmer Envision™ instrument for chemiluminescent signal detection.
Data Analysis: Compound activity was analyzed using CBIS data analysis suite (ChemInnovation, CA). For agonist mode assays, percentage activity was calculated using the following formula: % Activity=100%×(mean RLU of test sample−mean RLU of vehicle control)/(mean MAX control ligand−mean RLU of vehicle control). For antagonist mode assays, percentage inhibition was calculated using the following formula: % Inhibition=100%×(1−(mean RLU of test sample−mean RLU of vehicle control)/(mean RLU of EC80 control−mean RLU of vehicle control)).

The subject of experiment [6] is HCT116 colon cancer cell line. In words: WST-1 proliferation assay on HCT116 cells stably over-expressing target protein. As to conditions: low serum (0.1% FBS); 48 hours. As for the experimental part: Over-expression: Stable over-expression tumor cell lines were made by transduction using lentivirus. For virus production, HEK-293T cells were cultured in DMEM with high glucose and GlutaMAX™ medium (ThermoFisher) supplemented with 10% FBS. After 24 h, cells were transfected using lipofectamine 3000 (ThermoFisher) of Lentiviral packaging plasmid mix (CELLECTA) and pGenLenti plasmids (GenScript Inc) containing: 1) no insert, 2) Target Protein encoding sequence, and 3) the AP2A1 protein (positive control for cell proliferation; https://doi.org/10.1038/sj.one.1205216), into HCT116 (Colon cancer cell line; ATCC). A Myc-tag (EQKLISEEDL) was added to the c-terminus of the expressed protein. After 48 hr post-transfection, culture media containing viruses was collected, loaded onto a 10 ml syringe and filtered through a 0.45 μm filter. For cell transduction, HCT116 colorectal cancer cells were seeded in 6-well plates, the virus was added to the cells. After post-transduction, stable cell mixed populations are selected for with puromycin for 14 days. Expression of the Target Protein and controls are confirmed by immunoblot of 50 μg of cell lysate using anti-myc-tag polyclonal antibody (CST).
Proliferation: Polyclonal cell lines that over-express the Target Protein or control, wild-type HCT-116 cells, were plated in 96 well plate (10,000 or 5,000 cells per well) grown in standard media in both low serum (0.1% FBS) and high serum (10% FBS) conditions, respectively. After 48 hours, the cells are subjected to the WST-1 ([…]) assay. The WST-1 assay (Sigma) is a measure of the metabolic activity of group of cells. The higher the metabolic activity the higher the proliferation rate. Significant differences in proliferation are determined by comparing protein-expressing cell lines with a stable cell line of the empty expression vector (control) using ANOVA analysis.
In general terms: Formazan colour is commonly taken as a measure of viable cells.

As to “SEQ ID NO: 30462: target protein over-expressed (Myc-tagged) in stable HCT116 cell line; oncogene (METFEIFYLKCIRVNLISRQLNTFFLAVLLVVCMPCFHSVCTGKRT; cysteine pairing not given here; also: Myc tag; listed as Homo sapiens)”, in experiment [1], the “proliferation over time (impedance) on over-expression vs Empty Vector” value is given as “significantly increases proliferation”.

For “SEQ ID NO: 34224: ORF peptide; sequence only in Sequence Listing (MSFDHPEKNGPWPADPINLPSHG; listed as Homo sapiens)”, the “peptides inducing significant apoptosis vs vehicle control” value in experiment [2] is “SEQ ID NO: 34224”. Further, the “z-score compared to vehicle control (peptides inducing significant apoptosis)” value in experiment [3] is “SEQ ID NO: 34224”.

Turning to “SEQ ID NO: 34229: novel peptide GPCR ligand that agonizes C3AR1; sequence only in Sequence Listing (MWILRDRAVHELQAVLLALVLGR; listed as Homo sapiens)”, the “peptides inducing significant apoptosis vs vehicle control” value in experiment [2] was “SEQ ID NO: 34229”. Also, the “z-score compared to vehicle control (peptides inducing significant apoptosis)” value in experiment [4] is reported as “SEQ ID NO: 34229”. In experiment [5] (gpcrMAX panel), the “GPCR ligand mode at C3AR1” value is on record as “agonist of C3AR1”. For the same molecule, the “% activity with respect to known agonist, C3A Receptor Agonist” value in experiment [5] (0.3 μM) and in experiment [5] (1 μM) was “significant activity” each time.

B1: AP2A: published oncoprotein, over-expressed positive control for cell proliferation (protein, UniProt O95782 1-977, looked up)
AP-2 complex subunit alpha-1: MPAVSKGDGMRGLAVFISDIRNCKSKEAEIKRINKELANIRSKFKGDKALDGYSKKKYVCKLLFIFLLGHDIDFGHMEAVNLLSSNKYTEKQIGYLFISVLVNSNSELIRLINNAIKNDLASRNPTFMCLALHCIANVGSREMGEAFAADIPRILVAGDSMDSVKQSAALCLLRLYKASPDLVPMGEWTARVVHLLNDQHMGVVTAAVSLITCLCKKNPDDFKTCVSLAVSRLSRIVSSASTDLQDYTYYFVPAPWLSVKLLRLLQCYPPPEDAAVKGRLVECLETVLNKAQEPPKSKKVQHSNAKNAILFETISLIIHYDSEPNLLVRACNQLGQFLQHRETNLRYLALESMCTLASSEFSHEAVKTHIDTVINALKTERDVSVRQRAADLLYAMCDRSNAKQIVSEMLRYLETADYAIREEIVLKVAILAEKYAVDYSWYVDTILNLIRIAGDYVSEEVWYRVLQIVTNRDDVQGYAAKTVFEALQAPACHENMVKVGGYILGEFGNLIAGDPRSSPPVQFSLLHSKFHLCSVATRALLLSTYIKFINLFPETKATIQGVLRAGSQLRNADVELQQRAVEYLTLSSVASTDVLATVLEEMPPFPERESSILAKLKRKKGPGAGSALDDGRRDPSSNDINGGMEPTPSTVSTPSPSADLLGLRAAPPPAAPPASAGAGNLLVDVFDGPAAQPSLGPTPEEAFLSELEPPAPESPMALLADPAPAADPGPEDIGPPIPEADELLNKFVCKNNGVLFENQLLQIGVKSEFRQNLGRMYLFYGNKTSVQFQNFSPTVVHPGDLQTQLAVQTKRVAAQVDGGAQVQQVLNIECLRDFLTPPLLSVRFRYGGAPQALTLKLPVTINKFFQPTEMAAQDFFQRWKQLSLPQQEAQKIFKANHPMDAEVTKAKLLGFGSALLDNVDPNPENFVGAGIIQTKALQVGCLLRLEPNAQAQMYRLTLRTSKEPVSRHLCELLAQQF
Consider B1, for which the “proliferation (WST-1) on over-expression vs Empty Vector” value in experiment [6] is given as “significantly increases proliferation”. Also, the “proliferation over time (impedance) on over-expression vs Empty Vector” value in experiment [1] is on record as “significantly increases proliferation”.

B2: SEQ ID NO: 26966: ORF peptide; sequence only in Sequence Listing (peptide, listed as Homo sapiens)
chain: VSPRFLVLKSSPAHRDSDSPQTPRLRVMESRTLLLLFSGAVALIQTWADYNYNQGRNDLIFTLQLWKRQ
Consider B2, for which, in experiment [3], the “z-score compared to vehicle control (peptides inducing significant apoptosis)” value was “SEQ ID NO: 26966”.
